Source: patent publication US20220213181A1 (Novartis, published 2022)
Substitutions are numbered along the chain they refer to. Blank lines part the entries; values can stand above or below the binder they belong to.

Key:
[1] = molecular target: T1, Cynomolgus monkey ANGPTL4(26-406)-FLAG-His6-Avi (cynomolgus monkey, biotin on the C-terminal Avi tag (BirA) where the protein is immobilised); test: SET (solution equilibrium titration), MSD detection, IgG
T1 construct: also called Cyno ANGPTL4 (26-406)
T1 chain: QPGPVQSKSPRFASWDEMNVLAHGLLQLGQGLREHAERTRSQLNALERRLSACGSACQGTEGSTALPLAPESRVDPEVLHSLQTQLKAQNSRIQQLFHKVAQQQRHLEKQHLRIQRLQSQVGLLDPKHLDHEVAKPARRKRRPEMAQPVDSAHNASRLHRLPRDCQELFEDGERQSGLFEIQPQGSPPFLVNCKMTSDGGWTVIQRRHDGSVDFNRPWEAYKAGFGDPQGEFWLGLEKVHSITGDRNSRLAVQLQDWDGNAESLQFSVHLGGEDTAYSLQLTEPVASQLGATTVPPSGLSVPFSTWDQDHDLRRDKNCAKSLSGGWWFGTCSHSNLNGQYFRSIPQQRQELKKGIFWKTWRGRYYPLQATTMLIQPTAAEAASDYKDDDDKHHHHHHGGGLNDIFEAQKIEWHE
Description: (§1) SET assays were performed as follows. In a 96-well polypropylene plate, a constant concentration of ANGPTL4 antibody (10 pM) was mixed with different concentrations of non-biotinylated human, cyno, mouse, or rat full-length ANPGLT4 protein, or human ANGPTL4 N-terminal domain protein (5-fold serial dilution ranging from 0.01 pM to 100 nM) in SET buffer (PBS, pH 7.4 without CaCl₂) or MgCl₂, 0.5% w/v bovine serum albumin (fatty acid free) and 0.02% v/v Tween-20). The final reaction volume was 80 μL. The plate was sealed using an adhesive film and incubated at 22° C. for 14 hours with constant shaking (300 rpm). During the same period of time, a 384-well streptavidin-coated Meso Scale Discovery (MSD) plate was blocked by incubating the plate with 50 μL blocking buffer (PBS, pH 7.4, 5% w/v bovine serum albumin) per well at 4° C. The blocked MSD plate was washed 3 times with wash buffer (PBS, pH 7.4 and 0.05% v/v Tween-20) using a plate washer (BioTek). Biotinylated ANGPTL4 (full-length human, cyno, mouse, or rat ANGPTL4, or human ANGPTL4 N-terminal domain) protein (1 nM, 15 μL per well) was immobilized on the surface of the streptavidin-coated MSD plate by incubation at 22° C. for one hour with constant shaking (600 rpm). The plate was then washed 3 times as described earlier.
(§2) The equilibrium binding reactions (15 μL per well) were applied to the MSD plate with immobilized ANGPTL4 and incubated for 20 min at 22° C. The unbound material was removed by washing the plate 3 times with wash buffer, and the captured antibody was detected by adding 15 μL per well of a 1:500 dilution of Sulfo-tagged goat anti-human IgG (Meso Scale Discovery). The plate was then incubated for one hour with constant shaking (600 rpm). The plate was washed 3 times, and then 15 μL/well of 1× MSD read buffer T was added and the plate was developed using a Sector Imager 6000 (Meso Scale Discovery). The data were transferred to Microsoft Excel for analysis and plotted using GraphPad Prism v6. The KD values were determined by fitting the data to the following equation: […]
(§3) where Bₘₐₓ is the signal when no ANGPTL4 protein is present in solution, CAb is the constant concentration of ANGPTL4 antibody in solution, CAg is the concentration of ANGPTL4 in solution, and KD is the equilibrium dissociation constant.

[2] = molecular target: T2, Human ANGPTL4(26-406)-FLAG-His6-Avi (human, UniProt Q9BY76 24-406, biotin on the C-terminal Avi tag (BirA) where the protein is immobilised); test: as above
T2 construct: the text calls it 20 amino acids), then QP, ANGPTL4 26-406 and FLAG-His6-Avi; the signal peptide is left out here; also called full length human ANGPTL4; hANGPTL4
T2 sequence: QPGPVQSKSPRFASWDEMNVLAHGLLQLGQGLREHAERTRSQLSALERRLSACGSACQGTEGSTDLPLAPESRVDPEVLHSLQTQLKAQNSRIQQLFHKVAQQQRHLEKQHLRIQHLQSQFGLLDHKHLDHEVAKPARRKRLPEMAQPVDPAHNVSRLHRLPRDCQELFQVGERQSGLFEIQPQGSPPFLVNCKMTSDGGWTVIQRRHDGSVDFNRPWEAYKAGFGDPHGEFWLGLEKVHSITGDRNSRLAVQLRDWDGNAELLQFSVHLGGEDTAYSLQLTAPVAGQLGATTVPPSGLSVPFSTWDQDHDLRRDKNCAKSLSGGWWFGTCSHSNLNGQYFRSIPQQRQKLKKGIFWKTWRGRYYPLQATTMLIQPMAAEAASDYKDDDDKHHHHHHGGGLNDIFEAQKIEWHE
Description: as §1, §2, §3

Kd [1]: 0.007 nM | Kd [2]: 0.008 nM
B2: NEG276-LALA (antibody, human IgG1, kappa, L234A L235A)
heavy: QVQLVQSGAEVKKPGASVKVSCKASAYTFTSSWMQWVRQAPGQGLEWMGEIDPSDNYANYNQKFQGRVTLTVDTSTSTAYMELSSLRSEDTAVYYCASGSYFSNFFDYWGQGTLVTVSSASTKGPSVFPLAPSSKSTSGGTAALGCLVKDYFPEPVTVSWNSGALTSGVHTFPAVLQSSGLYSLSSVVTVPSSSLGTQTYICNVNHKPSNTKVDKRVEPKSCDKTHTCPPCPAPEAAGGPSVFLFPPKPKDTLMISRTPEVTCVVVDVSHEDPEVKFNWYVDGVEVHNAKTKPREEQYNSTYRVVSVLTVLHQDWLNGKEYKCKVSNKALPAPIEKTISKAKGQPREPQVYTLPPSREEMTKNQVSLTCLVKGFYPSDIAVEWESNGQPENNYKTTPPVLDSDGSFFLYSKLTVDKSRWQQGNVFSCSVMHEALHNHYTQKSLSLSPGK
light: EIVMTQSPATLSVSPGERATLSCKASQDIGSNLNWLQQKPGQAPRRLIYAVSNRGPGIPARFSGSRSGSEYTLTISSLQSEDFAVYYCLQYASSPWTFGQGTKVEIKRTVAAPSVFIFPPSDEQLKSGTASVVCLLNNFYPREAKVQWKVDNALQSGNSQESVTEQDSKDSTYSLSSTLTLSKADYEKHKVYACEVTHQGLSSPVTKSFNRGEC

Kd [1]: 0.022 nM | Kd [2]: 0.021 nM
B4: NEG310 (antibody, human IgG1, kappa, V domains shown)
VH: QVQLVQSGAEVKKPGASVKVSCKASGYTFTSYTMHWVRQAPGQGLEWMGYINPSSGYTKYNQKFQGRVTMTADKSTSTAYMELSSLRSEDTAVYYCAEGWLLLAMDYWGQGTLVTVSS
VL: EAVVTQSPATLSLSPGERATLSCRSSTGAVTTSNYAIWVQEKPGQAPRGLIGGTNNRAPGIPARFSGSLSGDDATLTISSLQPEDFAVYFCALWYSDHWVFGQGTKVEIKR
notes: humanized, hIgG1/kappa, parental antibody 17B1

Kd [1]: 0.015 nM | Kd [2]: 0.009 nM
B6: NEG313 (antibody, human IgG1, kappa, V domains shown)
VH: QVQLVQSGAEVKKPGASVKVSCKASGYTFNNYWITWVRQAPGQGLEWMGDFYPGGGSTNYNAKLQGRVTLTVDTSTSTAYMELRSLRSDDTAVYYCARSPPQVAPFDYWGQGTLVTVSS
VL: DIQMTQSPSSLSASVGDRVTITCQASDYIYHWLGWYQQKPGKAPKLLISGASGLETGVPSRFSGSGSGKDYTFTISSLQPEDIATYYCQQYWSTPWTFGQGTKLEIKR
notes: humanized, hIgG1/kappa, parental antibody 37P1

Kd [1]: 0.008 nM | Kd [2]: 0.016 nM
B8: NEG319 (antibody, human IgG1, kappa, V domains shown)
VH: B6 VH with N30T, N31S, Y32F, F51I, G56A, S57N, A62E, A104G
VL: B6 VL with D27E, Y30I, H31N, G34A, S52T, T94I
notes: humanized, hIgG1/kappa, parental antibody 14P18

The next lines start with the binder.

B1: NEG276 (antibody, human IgG1, kappa)
heavy: not shown
light: B2 light
notes: humanized, hIgG1/kappa, parental antibody 19C16
Kd [1]: 0.014 nM | Kd [2]: 0.024 nM

B3: NEG278 (antibody, human IgG1, kappa, V domains shown)
VH: QVQLVQSGAEVKKPGASVKVSCKASAYTFTSSWMQWVRQAPGQGLEWMGEIDPSDNYANYNQKFQGRVTLTVDTSTSTAYMELSSLRSEDTAVYYCASGSYFSNFFDYWGQGTLVTVSS
VL: EIVMTQSPATLSVSPGERATLSCKASQDIGSNLNWLQQKPGQAPRRLIYAASVREPGIPARFSGSRSGSEYTLTISSLQSEDFAVYYCLQYASSPWTFGQGTKVEIKR
notes: as for B1
Kd [1]: 0.02 nM | Kd [2]: 0.015 nM

B5: NEG315 (antibody, human IgG1, kappa, V domains shown)
VH: B6 VH with N30T, S57N
VL: B6 VL with D27E, H31N
notes: as for B6
Kd [1]: 0.021 nM | Kd [2]: 0.012 nM

B7: NEG318 (antibody, human IgG1, kappa, V domains shown)
VH: B6 VH with N30T, N31S, Y32F, F51I, G56A, S57T, A62E, A104G
VL: B6 VL with G34A, G53S, T94I
notes: as for B8
Kd [1]: 0.017 nM | Kd [2]: 0.009 nM
